Measured values reported in patent US20250289897A1 (Eli Lilly, published 2025).

Columns and labels:
CYNO LEPR-ECD-His = molecular target: T1, CYNO LEPR-ECD-His (cynomolgus monkey, UniProt Q9MYL0 22-837 (rhesus entry)); assay: SPR (Biacore T200), antibody captured on Protein A/G chip, His-tagged LEPR-ECD as analyte, 1:1 fit; mean n=3, SD 2.0E-9
T1 construct: also called cynomolgus monkey LEPR
T1 sequence: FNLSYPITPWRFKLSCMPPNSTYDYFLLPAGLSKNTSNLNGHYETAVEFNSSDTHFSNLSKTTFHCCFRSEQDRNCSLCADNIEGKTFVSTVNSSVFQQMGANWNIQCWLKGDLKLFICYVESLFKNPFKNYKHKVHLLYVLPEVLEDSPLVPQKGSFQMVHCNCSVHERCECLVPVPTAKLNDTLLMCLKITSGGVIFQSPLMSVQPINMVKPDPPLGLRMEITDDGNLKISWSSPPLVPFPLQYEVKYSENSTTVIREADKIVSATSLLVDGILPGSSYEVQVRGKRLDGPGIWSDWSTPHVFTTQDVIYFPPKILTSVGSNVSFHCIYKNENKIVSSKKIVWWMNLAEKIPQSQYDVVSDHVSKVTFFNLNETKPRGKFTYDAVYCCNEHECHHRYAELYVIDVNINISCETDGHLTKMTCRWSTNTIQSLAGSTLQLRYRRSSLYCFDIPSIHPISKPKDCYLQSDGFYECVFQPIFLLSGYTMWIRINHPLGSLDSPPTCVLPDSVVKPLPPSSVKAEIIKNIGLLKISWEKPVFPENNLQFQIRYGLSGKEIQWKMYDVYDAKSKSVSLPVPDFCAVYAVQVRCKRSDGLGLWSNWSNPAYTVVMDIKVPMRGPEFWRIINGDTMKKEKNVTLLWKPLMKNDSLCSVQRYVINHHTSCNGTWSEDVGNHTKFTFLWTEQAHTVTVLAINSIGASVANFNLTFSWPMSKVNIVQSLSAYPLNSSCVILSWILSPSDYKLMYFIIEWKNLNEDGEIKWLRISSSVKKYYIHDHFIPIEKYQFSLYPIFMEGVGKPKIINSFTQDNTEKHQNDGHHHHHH
Method: (§1) His-tagged ECDs were expressed and purified for each species and used for affinity analysis. A Protein A/G chip (Xantec, Cat #PAGHC200M) was utilized in this experiment with HBS-EP +0.01% BSA as running buffer. Antibodies were diluted to 1 μg/mL in running buffer and captured to a single flow cell on the chip surface. Each species of LEPR-ECD was diluted to 1000 nM in running buffer followed by 2-fold serial dilution. Each ligand concentration was injected over all flow cells at 100 L/min for 150 seconds followed by a 600 second dissociation phase. Regeneration was performed by injecting 10 mM glycine pH1.5 for 30 seconds at 10 μL/min. Data were analyzed in Biacore T200 Evaluation Software 3.1 by flow-cell 1 reference subtraction along with 0 nM blank subtraction. Data were fit globally using a “1:1 Binding” binding model to determine the on-rate (kₐ) and off-rate (kd) for each ligand. The affinity (KD) was calculated from the binding kinetics according to the relationship KD=kₐ/kd. Data reported as mean±standard deviation of experimental replicates.

human LEPR-ECD-His [1] = molecular target: T2, human LEPR-ECD-His (human, UniProt P48357 22-839); assay: SPR (Biacore T200), antibody captured on Protein A/G chip, His-tagged LEPR-ECD as analyte, 1:1 fit; mean n=3, SD 6.8E-9
T2 sequence: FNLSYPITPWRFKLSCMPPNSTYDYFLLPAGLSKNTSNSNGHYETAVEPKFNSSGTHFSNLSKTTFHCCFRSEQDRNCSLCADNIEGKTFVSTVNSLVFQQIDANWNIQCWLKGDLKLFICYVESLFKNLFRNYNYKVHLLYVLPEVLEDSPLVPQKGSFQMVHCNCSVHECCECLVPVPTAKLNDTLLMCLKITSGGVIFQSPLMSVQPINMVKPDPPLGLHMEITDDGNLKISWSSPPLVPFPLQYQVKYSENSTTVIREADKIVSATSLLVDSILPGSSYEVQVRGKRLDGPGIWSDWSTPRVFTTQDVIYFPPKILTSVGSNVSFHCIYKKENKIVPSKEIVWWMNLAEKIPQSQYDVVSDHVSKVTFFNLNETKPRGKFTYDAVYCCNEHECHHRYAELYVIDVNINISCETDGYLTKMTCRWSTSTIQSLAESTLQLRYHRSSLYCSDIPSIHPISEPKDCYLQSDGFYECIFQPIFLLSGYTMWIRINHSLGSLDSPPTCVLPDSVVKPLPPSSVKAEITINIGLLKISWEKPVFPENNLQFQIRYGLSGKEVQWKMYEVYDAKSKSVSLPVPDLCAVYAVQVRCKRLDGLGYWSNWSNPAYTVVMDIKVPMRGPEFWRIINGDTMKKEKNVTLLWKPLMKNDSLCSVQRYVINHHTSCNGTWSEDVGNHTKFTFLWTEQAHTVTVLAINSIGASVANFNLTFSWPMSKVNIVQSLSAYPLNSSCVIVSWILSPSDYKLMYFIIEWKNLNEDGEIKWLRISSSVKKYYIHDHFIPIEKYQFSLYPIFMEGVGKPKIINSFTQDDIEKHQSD
Method: as §1

Mouse LEPR-ECD-His = molecular target: T3, Mouse LEPR-ECD-His (mouse, UniProt P48356 22-839); assay: SPR (Biacore T200), antibody captured on Protein A/G chip, n = 1
T3 sequence: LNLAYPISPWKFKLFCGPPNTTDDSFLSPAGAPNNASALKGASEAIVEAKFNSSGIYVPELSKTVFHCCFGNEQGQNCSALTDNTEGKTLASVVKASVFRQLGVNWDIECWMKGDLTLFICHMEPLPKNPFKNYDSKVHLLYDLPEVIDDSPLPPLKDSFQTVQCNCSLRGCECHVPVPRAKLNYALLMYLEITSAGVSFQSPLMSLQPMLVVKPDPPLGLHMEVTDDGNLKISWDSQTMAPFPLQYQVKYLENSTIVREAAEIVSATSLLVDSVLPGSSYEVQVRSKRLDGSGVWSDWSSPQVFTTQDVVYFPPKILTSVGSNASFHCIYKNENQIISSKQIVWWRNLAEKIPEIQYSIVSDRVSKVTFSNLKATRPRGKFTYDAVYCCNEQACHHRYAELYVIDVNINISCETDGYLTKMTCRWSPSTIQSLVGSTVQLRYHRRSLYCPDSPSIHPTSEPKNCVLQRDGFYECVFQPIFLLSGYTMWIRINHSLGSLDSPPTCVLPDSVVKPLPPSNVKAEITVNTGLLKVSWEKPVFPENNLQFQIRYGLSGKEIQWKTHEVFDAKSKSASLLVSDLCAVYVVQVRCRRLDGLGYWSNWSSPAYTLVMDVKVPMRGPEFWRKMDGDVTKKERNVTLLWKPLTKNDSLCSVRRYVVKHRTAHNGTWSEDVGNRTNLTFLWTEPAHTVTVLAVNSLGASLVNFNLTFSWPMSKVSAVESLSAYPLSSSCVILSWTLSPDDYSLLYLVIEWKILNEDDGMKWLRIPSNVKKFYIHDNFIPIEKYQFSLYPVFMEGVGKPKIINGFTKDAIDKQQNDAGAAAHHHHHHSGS
Method: as §1

[2] = molecular target: T4, cynomolgus monkey LEPR, full length, on HEK293-STAT3Luc-cmLepR2 cells (Macaca fascicularis); assay: flow cytometry on live HEK293-STAT3Luc-cmLepR2 cells, AF647 anti-human IgG; average of 4 runs, SD 0.6
T4 construct: whole, on cells; also called cyno-LEPR; Macaca fascicularis LEPR
Method: Cells were incubated in blocking buffer for 10 mins at room temperature. After one rinse with PBS, cells were transferred to U-bottom 96-well plate at 200 μL and 0.2˜0.26^e6 cells/well. […] Cells were then incubated with 30 μL/well of antibodies diluted in flow buffer at 1000 nM as high dose followed by 9-point dose response including 5-fold dilutions not including 0 (totaling 9 concentrations for each Antibody) for 30 minutes at 4° C. in dark.

human LEPR-ECD-His [3] = molecular target: T2, human LEPR-ECD-His; assay: SPR (Biacore T200), antibody captured on Protein A/G chip, His-tagged LEPR-ECD as analyte, 1:1 fit; mean n=3, SD 7.1E-9
Method: as §1

B1: Antibody A (antibody, human IgG1, kappa, L234A L235A)
heavy: EVQLLESGGGLVQPGGSLRLSCAASGFTFSSFAMSWVRQAPGKGLEWVSAISGSGGSTYSADSVRGRFTISRDNSKNTLYLQMNSLRAEDTAVYYCAKDQGDWDFLFDYWGQGTLVTVSSASTKGPSVFPLAPSSKSTSGGTAALGCLVKDYFPEPVTVSWNSGALTSGVHTFPAVLQSSGLYSLSSVVTVPSSSLGTQTYICNVNHKPSNTKVDKRVEPKSCDKTHTCPPCPAPEAAGGPSVFLFPPKPKDTLYITREPEVTCVVVSVSHEDPEVKFNWYVDGVEVHNAKTKPREEQYNSTYRVVSVLTVLHQDWLNGKEYKCKVSNKALPAPIEKTISKAKGQPREPQVYTLPPSREEMTKNQVSLTCLVKGFYPSDIAVEWESNGQPENNYKTTPPVLDSDGSFFLYSKLTVDKSRWQQGNVFSCSVMHEALHNHYTQKSLSLSPGK
light: DIQMTQSPSFLSASVGDRVTITCRASQGISSSLAWYQQKPGKAPKLLIYTASTLQSGVPSRFSGSGSGTEFTLTISSLQPEDFATYYCQQLIYYPFTFGQGTKVEIKRTVAAPSVFIFPPSDEQLKSGTASVVCLLNNFYPREAKVQWKVDNALQSGNSQESVTEQDSKDSTYSLSSTLTLSKADYEKHKVYACEVTHQGLSSPVTKSFNRGEC
notes: IgG1 mAb
CYNO LEPR-ECD-His
  Kd: 19 nM

B2: Antibody B (antibody, human IgG1, kappa, L234A L235A, V domains shown)
VH: EVQLLESGGGLVQPGGSLRLSCAASGFTFSSFAMSWVRQAPGKGLEWVSAISGSGGSTYSADSVRGRFTISRDNSKNTLYLQMNSLRAEDTAVYYCAKDQGDWDFLFDYWGQGTLVTVSS
VL: DIQMTQSPSFLSASVGDRVTITCRVSQGISSSLAWYQQKPGKAPKLLIYTASTLQSGVPSRFSGSGSGTEFTLTISSLQPEDFATYYCQQLNYYPFTFGQGTKVEIKR
Human LEPR-ECD-His [1]
  Kd: 22 nM

B3: Antibody C (antibody, human IgG1, kappa, L234A L235A, V domains shown)
VH: EVQLLESGGGLVQPGGSLRLSCAASGFTFSSFAMSWVRQAPGKGLEWVSAISGSGGSTYSADSVRGRFTISRDNSKNTLYLQMNSLRAEDTAVYYCAKDQGDWDFLFDYWGQGTLVTVSS
VL: DIQMTQSPSFLSASVGDRVTITCRASQGISSSLAWYQQKPGKAPKLLIYTASTLQSGVPSRFSGSGSGTEFTLTISSLQPEDFATYYCQQLNYYPFSFGQGTKVEIKR
Mouse LEPR-ECD-His
  binding result: no binding (tested: LEPR-ECD tested up to 1000 nM)
[2]
  EC50: 0.83 nM
Human LEPR-ECD-His [3]
  Kd: 26 nM
